“Also recorded” adds a separate entry of the source.
Columns and labels:
[1] = target: T1, Human CD39-L3, also known as NTPDase3 or ENTPD3 (Homo sapiens, UniProt O75355); assay: ELISA titration on CD39-L3; format: binding; conditions: coated recombinant protein, OD=450
T1 sequence (O75355 1-529): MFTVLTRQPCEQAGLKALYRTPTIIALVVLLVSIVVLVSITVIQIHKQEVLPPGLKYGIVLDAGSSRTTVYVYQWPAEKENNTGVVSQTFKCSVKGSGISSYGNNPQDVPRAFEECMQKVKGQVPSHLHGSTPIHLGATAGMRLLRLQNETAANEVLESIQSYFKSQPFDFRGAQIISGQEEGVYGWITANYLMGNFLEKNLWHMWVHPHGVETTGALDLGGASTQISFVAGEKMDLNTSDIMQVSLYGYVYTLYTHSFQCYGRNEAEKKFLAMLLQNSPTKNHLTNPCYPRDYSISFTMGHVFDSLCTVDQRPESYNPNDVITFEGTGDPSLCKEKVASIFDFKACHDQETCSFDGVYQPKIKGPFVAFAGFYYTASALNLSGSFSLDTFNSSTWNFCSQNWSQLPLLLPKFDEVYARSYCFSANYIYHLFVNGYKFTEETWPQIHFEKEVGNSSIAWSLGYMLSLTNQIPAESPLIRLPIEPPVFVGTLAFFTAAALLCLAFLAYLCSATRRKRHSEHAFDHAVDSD
Description: Wells were washed in TBS Tween 20, and further saturated 2H at RT in TBS Blocking buffer. Dose range concentration of primary antibody was incubated in TBS blocking buffer for 2 h at RT. Wells were washed in TBS Tween 20. […] Optical density was measured on Enspire™ at OD=450.

[2] = system: CHO cells expressing cynomolgus (macaca fascicularis) CD39; assay: Antibody titration by flow cytometry on CHO-cyCD39; format: binding
Description: Cells were incubated with various concentration of unlabeled anti-CD39 antibody from 30 μg/ml to 5×10^−4 μg/ml, for 30 minutes at 4° C. After washes, cells were incubated with Goat anti-mouse H+L labeled secondary antibody for 30 min at 4° C.

[3] = system: cynomolgus CD39-expressing CHO cells; assay: Inhibition of the enzymatic activity of cellular CD39, CHO-cyCD39 cells; format: cell-based; conditions: result in words
Description: The inhibition of the CD39 enzymatic activity in CD39-expressing cells by antibodies was evaluated using Cell Titer Glo™ (Promega, reference G7571) that allows assessment of ATP hydrolysis through use of a reagent that generates a luminescent signal proportional to the amount of ATP present. The assay was thus designed to permit assessment of the inhibition of ATP hydrolyzed by CD39 in the cell culture supernatant. Briefly, 5×10^4 Ramos human lymphoma cells, 5×10^3 human CD39-, cynomolgus CD39- and mouse CD39-expressing CHO cells, were incubated 1 hour at 37° C. with anti-CD39 antibodies from 30 μg/ml to 5×10^−4 μg/ml. Cells were then incubated with 20 μM ATP for 1 additional hour at 37° C. Plates were centrifuged for 2 min at 400 g and 50 μl cell supernatant are transferred in a luminescence microplate (white wells). 50 μl CellTiter-Glo® Reagent (CTG) was added to the supernatant and emitted light was quantified after a 5 min incubation in the dark using a Enspire™ luminometer. Anti-CD39 antibody efficacy was determined by comparing emitted light in presence of antibody with ATP alone (maximal light emission) and ATP together with cells (minimal light emission).

B1: I-394: anti-CD39 antibody, VH SEQ ID NO: 3, VL SEQ ID NO: 4; heavy and light chains SEQ ID NOS: 37 and 38 (antibody)
heavy: EVQLQQSGPELVKPGASVKMSCKASGYTFTDYNMHWVKQSHGRTLEWIGYIVPLNGGSTFNQKFKGRATLTVNTSSRTAYMELRSLTSEDSAAYYCARGGTRFAYWGQGTLVTVSAASTKGPSVFPLAPSSKSTSGGTAALGCLVKDYFPEPVTVSWNSGALTSGVHTFPAVLQSSGLYSLSSVVTVPSSSLGTQTYICNVNHKPSNTKVDKRVEPKSCDKTHTCPPCPAPEAEGAPSVFLFPPKPKDTLMISRTPEVTCVVVDVSHEDPEVKFNWYVDGVEVHNAKTKPREEQYNSTYRVVSVLTVLHQDWLNGKEYKCKVSNKALPSSIEKTISKAKGQPREPQVYTLPPSREEMTKNQVSLTCLVKGFYPSDIAVEWESNGQPENNYKTTPPVLDSDGSFFLYSKLTVDKSRWQQGNVFSCSVMHEALHNHYTQKSLSLSPGK
light: DIVLTQSPASLAVSLGQRATISCRASESVDNFGVSFMYWFQQKPGQPPNLLIYGASNQGSGVPARFRGSGSGTDFSLNIHPMEADDTAMYFCQQTKEVPYTFGGGTKLEIKRTVAAPSVFIFPPSDEQLKSGTASVVCLLNNFYPREAKVQWKVDNALQSGNSQESVTEQDSKDSTYSLSSTLTLSKADYEKHKVYACEVTHQGLSSPVTKSFNRGEC
modifications: Chimeric homo sapiens mus musculus
B1 was tested, and the “binding to CD39-L3 in ELISA” value [1] was “not to any of the human isoforms”, the “binding to cells expressing cynomolgus CD39 (CHO-cyCD39)” value [2] was “bound; also recorded: binds” and the “blocking CD39 enzymatic activity in cells expressing cynomolgus CD39 (CHO-cyCD39)” value [3] was “blocks CD39 enzymatic activity; also recorded: highly potent at blocking CD39 enzymatic activity”.

Source: patent US20190218304A1, “POTENTIATING THE EFFECT OF ATP RELEASE” (INNATE PHARMA, priority 2017, published 2019)
